Consider 3 compounds from US11766432B2, “Cleavable conjugates of catechol compounds and water-soluble polymers and methods of treatment using the same” (SERINA THERAPEUTICS, INC., priority 2018, dated 2023).

A short description of one data set: in vivo. The conditions noted are these: female, cynomolgus monkey, sc, 1.5 mg/kg.
In data set [1] the test system is skin at injection site. As to conditions: for tolerability after SC injection: primates, single SC injection 1.5 mg/kg.
For data set [2] the following is noted: female, cynomolgus monkey, in vivo, sc, 1.5 mg/kg.
Data set [3] has as its system skin at injection site. The conditions noted are these: for tolerability after SC injection: primates, SC injection 3.0 mg/kg (apomorphine equivalents), multiple doses; for skin at the site of injection 12 hours after the third dose (day 14): weekly SC injection 3.0 mg/kg (apomorphine equivalents).
Protocol: Non-naïve female cynomolgus monkeys were used in the study. […] They were assigned to three groups with 3 animals per group.
The test articles were dosed subcutaneously (as described in Table 6) in the right shoulder on days 0 and 14 and in the left shoulder on days 7 and 21, of each monkey. […] Photographs were taken to study the severity of the reactions and observations that were recorded.
To determine if the Apo-A, Apo-B, and Apo-G conjugates induced skin reactions at a concentration of 3.0 mg/kg (as compared to the 1.5 mg/kg dose described in Examples 18 and 20), all animals were/will be monitored daily for these skin reactions. Photographs were/will be taken to study the skin reactions and observations were/will be recorded. Bases on the presence of erythema and swelling, the skin reactions were/will be recorded as none, slight, well defined, moderate and severe.
Data set [4] is described as follows: Pharmacokinetics of free apomorphine in plasma after single SC infusion/injection. As to conditions: for dose dumping (burst effect): after single SC administration 1.5 mg/kg; for AUC0-168 / AUC0-inf / AUC0-last / Cmax / Tmax / time post-dose by which drug is completely cleared and below the limit of quantification (BLQ) / increase of Tmax as compared to apomorphine HCl / increase of t1/2z as compared to apomorphine HCl: free apomorphine, single SC 1.5 mg/kg; for AUC0-168 / AUC0-inf / AUC0-last / Cmax / Tmax / time post-dose by which drug is completely cleared and below the limit of quantification (BLQ): plasma; for AUC0-168 / AUC0-inf / AUC0-last / Cmax / Tmax: female monkeys, mean n=3; for period of sustained release of apomorphine: single SC injection 1.5 mg/kg, monkeys.

The conditions of data set [5]: single SC injection 1.5 mg/kg; for PR (percent of released apomorphine): AUC0-last(free) relative to AUC0-last(total); for PR (percent of released apomorphine) / AUC0-168 / AUC0-inf / AUC0-last / CL/F obs / Cmax / Tmax: mean; for time by which drug is cleared and BLQ / AUC0-168 / AUC0-inf / AUC0-last / CL/F obs / Cmax / Tmax: total apomorphine, plasma.
Setting [6] is: single SC 1.5 mg/kg, per animal.

“And” between values parts separate entries of the source, which are not always exact repeats. Identical values can stand only once. Counter-ions that a name gives are not always drawn. Like-named read-outs stand apart in the source and are kept apart here. Where only a bound is given, the exact number is not on record here.

The CL/F is the apparent clearance, not corrected for the fraction that reaches the circulation. One may read the Cmax as the peak of the concentration-time curve. As usually defined, the Vd/F is the volume of distribution divided by bioavailability. Usually AUC(0-t) stands for exposure summed from dosing to a finite time, without extrapolation to infinity. Lower therefore signals less exposure. As a reminder, the Tmax is the time from dosing to the highest level.

In “in vivo”, `CN1CCc2cccc3c2[C@H]1Cc1ccc(O)c(O)c1-3` [apomorphine HCl, Apomorphine hydrochloride] showed an AUC0-inf of 90.2 ng·h/mL, a CL/F of 289 mL/min/kg, a Cmax of 10.6 ng/mL and a Vd/F of 43.6 L/kg. Moreover, in the data set “in vivo” (cynomolgus), the AUC(0-t) is 89.8 ng·h/mL, the Cmax was around 10.6 ng/mL and the Tmax amounted to 4 h. In addition, the “Observations (skin reaction), Day 15” value in the data set with skin at injection site [1] (female, cynomolgus monkey, in vivo, sc, 1.5 mg/kg, 15 day) was “Day 15: Skin appears normal”. Moreover, in data set [2], the “time post-dose by which drug is completely cleared and below the limit of quantification (BLQ)” value was at most 24 h.

Turning to “POZ10p20k[Apo(2-methylpropanoate)(4-triazolebutanoate)]10 [POZ-Apomorphine B]”, in the data set on skin at injection site [3], the “tolerability after SC injection” value is listed as “well tolerated”; the “skin at the site of injection 12 hours after the third dose (day 14)” value is “appeared normal with no sign of erythema and swelling”. Moreover, in data set [4], the “dose dumping (burst effect)” value is on record as “no evidence of dose dumping”, the AUC0-168 was found to be 478 ng·h/mL, the AUC0-inf is 968 ng·h/mL and the AUC0-last came to 640 ng·h/mL. In addition, in data set [4], the Cmax was 3.5 ng/mL; the Tmax is 104 h; the “time post-dose by which drug is completely cleared and below the limit of quantification (BLQ)” value is above 240 h; the “increase of Tmax as compared to apomorphine HCl” value is recorded as 26 times. Also, in data set [4], the “increase of t1/2z as compared to apomorphine HCl” value turned out to be 84.3 times and the “period of sustained release of apomorphine” value is 10 days. The “tolerability after SC injection” value in the data set on skin at injection site [1] is “well tolerated”. In addition, in the data set with skin at injection site [1] (setting [6]), the “Observations (skin reaction), Day 1 to Day 15” value is “Day 1 to Day 15: No erythema and swelling”; the “Observations (skin reaction), Day 15” value is “Day 15: Skin appears normal”. Moreover, in data set [5], the “PR (percent of released apomorphine)” value was 5.5%; the “time by which drug is cleared and BLQ” value is above 240 h; the AUC0-168 was 8317 ng·h/mL; the AUC0-inf is 16456 ng·h/mL. For the same compound, in data set [5], the AUC0-last worked out at 11610 ng·h/mL and the CL/F obs is 91 mL/h/kg. Moreover, in data set [5] (1.5 mg/kg), the Cmax was 72.6 ng/mL and 72.7 ng/mL; the time of peak concentration (Tmax) stood at 136.0 h.

“POZ10p20k[Apo(4-butanoate)(4-triazolebutanoate)]10 [POZ-Apomorphine A]”: in the data set on skin at injection site [3], the “tolerability after SC injection” value is recorded as “well tolerated”; the “skin at the site of injection 12 hours after the third dose (day 14)” value was “appeared normal with no sign of erythema and swelling”. Besides, in data set [4], the “dose dumping (burst effect)” value is “no evidence of dose dumping”, the AUC0-168 was 647 ng·h/mL, the AUC0-inf came to 666 ng·h/mL and the AUC0-last came out at 656 ng·h/mL. In data set [4], the Cmax worked out at 6.6 ng/mL; the Tmax stood at 88 h; the “time post-dose by which drug is completely cleared and below the limit of quantification (BLQ)” value is on record as at most 240 h; the “increase of Tmax as compared to apomorphine HCl” value came out at 22 times. Besides, in data set [4], the “increase of t1/2z as compared to apomorphine HCl” value turned out to be 13.2 times and the “period of sustained release of apomorphine” value was determined as 5 days. In the data set with skin at injection site [1], the “tolerability after SC injection” value is reported as “well tolerated”. In the data set on skin at injection site [1] (setting [6]), the “Observations (skin reaction), Day 1 to Day 15” value is “Day 1 to Day 15: No erythema and swelling”; the “Observations (skin reaction), Day 15” value is given as “Day 15: Skin appears normal”. Further, in data set [5], the “PR (percent of released apomorphine)” value was 4.8%; the “time by which drug is cleared and BLQ” value is reported as at most 240 h; the AUC0-168 was 13368 ng·h/mL; the AUC0-inf is 138986 ng·h/mL. In data set [5], the AUC0-last amounted to 13835 ng·h/mL, the CL/F obs came out at 109 mL/h/kg, the Cmax was 151.3 ng/mL and the Tmax came to 88 h.
